These results are taken from US7166475B2, “Compositions and methods for monitoring the modification state of a pair of polypeptides” (Cyclacel Ltd., priority 1999, dated 2007).

Data set [1] deals with chymotrypsin. Put plainly: Time-course digestion with chymotrypsin, MALDI-TOF. Format: biochemical. As to the method: A time-course digestion of Peptide A with chymotrypsin is analysed by MALDI-TOF mass spectrometry. On the protein matrix (MS, denoted SA on each spectrogram) the Peptide A substrate as 4245 Da is evident. […] The C-terminal fragment appears to be cleaved at a second site (after L-26) generating a product of 1100 Da, although the final peptide fragment of about 990 Da is not observed in the MS.

The format of data set [2] is physicochemical. The settings on record: 10 μM peptide, pH 7.0, 20° C. How it is done:
The circular dichroism (measured in units of ellipticity) of proteins at 222 nm provides a measure of the amount of a-helix present in the structure, with a large, negative ellipticity indicting a high level of helicity. The coiled-coil has a distinctive a-helical CD spectrum with minima at 222 nm and 208 nm (O'Shea et al., 1989, Science, 243: 538–542). The CD spectra of the unmodified Zip3 and its phosphorylated form (‘Zip3P’) are determined at a sample concentration of 10 μM in 150 mM KCB, 42.2 mM K2HPO4, 7.8 mM KH2PO4, pH 7.0 at 20° C.; spectra are recorded using a 1 mm pathlength cell in a Jasco J-715 spectropolarimeter with a Jasco PTC-348W Peltier temperature control unit. Peptide concentration is determined by tyrosine absorbance at 280 nm in 6M GuHCl. […] The effipticities of Zip3 and Zip3P at 222 nm with increasing temperature are measured. The steep portion of the sigmoid curve for Zip3 indicates the unfolding of the molecule. It is clear that this leucine zipper peptide begins to unfold at around 35° C. and is completely unfolded by 70° C. […]
The circular dichroism (measured in units of ellipticity) of proteins at 222 nm provides a measure of the amount of a-helix present in the structure, with a large, negative ellipticity indicting a high level of helicity. […] In all experiments described herein, peptide concentration is determined by tyrosine absorbance at 280 nm in 6M GnHCl.

For data set [3], the system named is peptide D. Put plainly: FRET of fluorescein-labelled peptides N and C with rhodamine-labelled peptide D. It counts as binding. The settings on record: no peptidase.
Data set [4] concerns carboxypeptidase. In words: Carboxypeptidase digestion, FRET. It counts as biochemical.
In data set [5] the test system is aminopeptidase. In words: Aminopeptidase digestion, FRET. It counts as biochemical.
In data set [6] the target is PKA (Homo sapiens, UniProt P17612). Put plainly: Timecourse of phosphorylation by PKA (32P-ATP). The conditions noted are these: 0.2 mM ATP. Format: biochemical. As to the method: A timecourse of phosphorylation of these peptides by PKA is run in 50 mM histidine/HCl (pH 7.0), 5 mM MgSO4, 5 mM NaF, 0.05 mM EGTA, 120 mM kcb with 0.2 mM ATP (30.9 cpm/pmol ^32P-ATP) and 0.5 μM PKA. […] Zip4T is also phosphorylated, at a slower rate, with full phosphorylation achieved in 30 minutes in this assay. In this assay, the difference in cpm recovered between the Zip4 peptides and PL919Y is due to the difference in recovery of these peptides on P81 paper. The plateau indicates full phosphorylation.
A set of timecourses of phosphorylation is performed on Zip4S using PKA and Ca^2+/Calmodulin-dependent Protein Kinase (CaMK-II), together with positive and negative controls for CaMK-II (these controls confirm that the preparation of CaMK-II posesses the expected characteristics of that enzyme). PKA phosphorylation is performed in 50 mM histidine/HCl (pH 7.0), 5 mM MgSO4, 5 mM NaF, 0.05 mM EGTA, 120 mM kcb with 0.2 mM ATP (39.72 cpm/pmol ^32P-ATP) and 0.25 μM PKA. CaMK-II phosphorylation is performed in 50 mM histidine/HCl (pH 7.0), 5 mM MgSO4, 5 mM NaF, 120 mM kcb, 0.5 mM Ca^2+, 0.037 mg/ml calmodulin with 0.2 mM ATP (39.72 cpm/pmol ^32P-ATP) and 10% crude CaMK-II. In the Ca^2+-free experiment, Ca^2+ is replaced by 0.05 mM EGTA. […]

The subject of data set [7] is Ca^2+/Calmodulin-dependent Protein Kinase (CaMK-II). Put plainly: Timecourse of phosphorylation by CaMK-II (32P-ATP). Format: biochemical. The settings on record: 10% crude CaMK-II, 0.5 mM Ca^2+, 0.037 mg/ml calmodulin, 0.2 mM ATP. As to the method:
A set of timecourses of phosphorylation is performed on Zip4S using PKA and Ca^2+/Calmodulin-dependent Protein Kinase (CaMK-II), together with positive and negative controls for CaMK-II (these controls confirm that the preparation of CaMK-II posesses the expected characteristics of that enzyme). PKA phosphorylation is performed in 50 mM histidine/HCl (pH 7.0), 5 mM MgSO4, 5 mM NaF, 0.05 mM EGTA, 120 mM kcb with 0.2 mM ATP (39.72 cpm/pmol ^32P-ATP) and 0.25 μM PKA. CaMK-II phosphorylation is performed in 50 mM histidine/HCl (pH 7.0), 5 mM MgSO4, 5 mM NaF, 120 mM kcb, 0.5 mM Ca^2+, 0.037 mg/ml calmodulin with 0.2 mM ATP (39.72 cpm/pmol ^32P-ATP) and 10% crude CaMK-II. In the Ca^2+-free experiment, Ca^2+ is replaced by 0.05 mM EGTA. […] Such specificity of a modification site in a polypeptide according to the invention is a clear advantage for use of the invention in an intracellular assay, or for measuring the activity of a particular polypeptide modifying agent in a complex mixture such as a cell lysate.

Data set [8] has as its target T1, Zip4SF (fluorescein label (on the cysteine residue, by analogy with Zip3F)).
T1 construct: read as Zip4S with fluorescein, like Zip3F; also called Zip4S labelled with fluorescein
T1 peptide: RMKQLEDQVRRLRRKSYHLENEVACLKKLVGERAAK
In words: FRET in solution.

Data set [9] has as its target T2, Peptide N, fluorescein-labelled (fluorescein label at the K residue).
T2 peptide: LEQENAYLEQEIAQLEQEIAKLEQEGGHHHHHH
In words: FRET, peptide N immobilised.

Data set [10] concerns the target T3, Peptide C, fluorescein-labelled (fluorescein label (site said to be 'the C and K residues as before', but the entry has neither Cys nor Lys)).
T3 peptide: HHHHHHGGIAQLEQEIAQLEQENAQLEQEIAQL
In words: FRET, peptide C immobilised.

Data set [11] addresses T4, Peptide 4 (SEQ ID NO. 56) (fluorescein label, by the procedure of Example 10 (not restated)).
T4 construct: Immobilised peptide of the caspase reporter; also called Peptides 4
T4 peptide: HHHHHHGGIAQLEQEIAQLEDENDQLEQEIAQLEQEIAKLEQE
In words: FRET, procedure of Example 10.

The target in data set [12] is T5, Pep 1.
T5 construct: Unphosphorylated; immobilised by its His tag on a Ni-NTA sensor chip in the Biacore assay
T5 peptide: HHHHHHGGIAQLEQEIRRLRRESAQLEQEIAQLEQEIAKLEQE
Put plainly: statement in Example 3.

In data set [13] the target is T6, Peptide 3 (SEQ ID NO. 54), labelled with fluorescein (fluorescein at the lysine residue).
T6 construct: also called peptides 3
T6 peptide: T4 peptide with D21Q, D24R
In words: FRET, Peptide 3 immobilised.

The target of data set [14] is T7, Pep 1F (Pep 1 peptide labelled with fluorescein) (not fully specified; fluorescein label; the lysine residue is inserted for labelling purposes).
T7 construct: Unphosphorylated
T7 peptide: T5 peptide
Put plainly: FRET in solution, 50 µM Pep 1F and 50 µM Pep 2R, 37 °C. How it is done:
Fluorescence emission of fluorescein is measured at 520 nm by exciting at appropriate wavelength (450 nm). Pep 2R (Pep 2 labelled with rhodamine) at concentrations equal to that of Pep 1F (50 μM) is added and the fluorescence emission of Pep 1F and Pep 2R are monitored.

Substitutions are numbered along the chain they refer to. No end group written: not given here. rhodamine = not defined here

Consider “HHHHHHGGIAQLEQEIAQLEQENAYLEQEIAQLEQEIAKLEQE [Peptide A]”, for which the digestion by chymotrypsin result in data set [1] is reported as “degraded completely over two hours”. Further, in [2], the “CD spectrum (structure indicated)” value is reported as “classic coiled-coil”.

Regarding “LEQENAYLEQEIAQLEQEIAKLEQEGGHHHHHH [Peptide N]”, in data set [3], the “FRET in the presence of rhodamine-labelled peptide D” value is on record as “FRET is observed”. Also, in [4], the “FRET of pair with peptide D after addition of carboxypeptidase” value is recorded as “not affected”. In addition, the “FRET of pair with peptide D after addition of aminopeptidase” value in data set [5] is reported as “complete loss of FRET”.

For the molecule “R MKQLEDQ VRRLRRK SYHLENE VACLKKL VGERAAK (RMKQLEDQVRRLRRKSYHLENEVACLKKLVGERAAK) [Zip4S]”, in data set [6] (0.25 μM PKA), the “extent of phosphorylation by PKA” value was “complete phosphorylation”. The “phosphorylation by PKA (substrate quality, rate)” value in data set [6] (0.5 μM PKA, compared with known substrate PL919Y) was “good substrate”. In addition, the “phosphorylation by CaMK-II” value in data set [7] is listed as “unable to phosphorylate”.

B1: Zip4SR (peptide)
peptide: T1 peptide
modifications: also: rhodamine label, read from undefined name by analogy with Zip3R
notes: read as Zip4S with rhodamine, like Zip3R; also called Zip4S labelled with rhodamine
Take B1: the binding result in data set [8] is reported as “binds”.

Turning to IAQLKQKIAQLKQKNAQLKQKIAQLKQKIC(rhodamine)QLKQK (reading uncertain) [Peptide D, rhodamine-labelled], the binding result in data set [9] and in data set [10] was “binds” each time.

As to IAQLKQKIAQLKQKNAQLKQKIAQLKQKICQLKQK (also: rhodamine label by procedure, site not given here) [Peptide 44 (SEQ ID NO. 57)], the binding result in data set [11] was “binds”.

As to IAQLKQEIAQLKQKNAQLKQKIAQLKQKICQLKQK [Pep 2], in data set [12], the binding result is recorded as “binds”.

Consider IAQLKQKIAQLKQKNAQLKQKIAQLKQKIC(rhodamine)QLKQK (reading uncertain) [peptide 33 (SEQ ID NO. 55), labelled with rhodamine], for which, in data set [13], the binding result is “binds”.

IAQLKQEIAQLKQKNAQLKQKIAQLKQKIC(rhodamine)QLKQK (reading uncertain) [Pep 2R (Pep 2 peptide labelled with rhodamine)]: the binding result in data set [14] is reported as “binds”.
